According to patent US20190010228A1 (Genentech, published 2019):
Numbering of substitutions follows the chain as printed. Names and notes keep the numbering of the source. One block for each binder: values may come before it.

Assays:
[1] = target: LRP5 (transfected into reporter cells); test: cell-based or functional assay
[2] = target: T1, human LRP5 domains E3-E4 (E644-Q1263 of SEQ ID NO: 42) (human, UniProt O75197 644-1263); test: SPR, BIAcore T100, IgG captured by anti-human Fc, LRP5E3/E4 as analyte, 25 C
T1 construct: Soluble fragment made in-house; It was biotinylated for phage sorting; also called LRP5-E3/E4; LRP5E3/E4
T1 sequence: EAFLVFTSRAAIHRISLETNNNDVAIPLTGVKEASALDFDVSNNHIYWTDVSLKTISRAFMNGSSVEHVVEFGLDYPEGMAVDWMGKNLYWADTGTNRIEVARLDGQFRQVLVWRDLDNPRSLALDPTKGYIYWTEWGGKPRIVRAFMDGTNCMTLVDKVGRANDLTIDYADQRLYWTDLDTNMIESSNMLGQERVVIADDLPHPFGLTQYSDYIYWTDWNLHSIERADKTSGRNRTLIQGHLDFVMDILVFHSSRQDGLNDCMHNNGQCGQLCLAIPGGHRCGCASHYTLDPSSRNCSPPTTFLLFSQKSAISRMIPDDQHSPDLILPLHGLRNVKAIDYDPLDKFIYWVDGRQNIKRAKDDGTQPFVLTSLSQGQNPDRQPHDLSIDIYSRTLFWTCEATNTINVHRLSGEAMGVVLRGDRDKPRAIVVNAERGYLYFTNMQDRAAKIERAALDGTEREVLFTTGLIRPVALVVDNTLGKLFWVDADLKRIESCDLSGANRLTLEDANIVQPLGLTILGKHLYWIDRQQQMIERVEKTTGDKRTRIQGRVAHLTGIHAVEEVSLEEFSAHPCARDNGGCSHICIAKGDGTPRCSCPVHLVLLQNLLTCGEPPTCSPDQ
Description: Binding affinities of anti-LRP5E3/E4 IgGs were measured by Surface Plasmon Resonance (SPR) using a BIAcore™-T100 instrument. Anti-LRP5E3/E4 human IgGs were captured by mouse anti-human Fc antibody (GE Healthcare, cat# BR-1008-39) coated on CM5 biosensor chips to achieve approximately 200 response units (RU). For kinetics measurements, two-fold serial dilutions ([…]) of human LRP5E3/E4 (GNE) were injected in HBS-P buffer (10 mM HEPES, pH 7.4, 0.15 M NaCl, 0.005% surfactant P20) at 25° C. with a flow rate of 30 μl/min. Association rates (kₒₙ) and dissociation rates (koff) were calculated using a simple one-to-one Langmuir binding model (BIAcore Evaluation Software version 2.0.2). The equilibrium dissociation constant (KD) was calculated as the ratio koff/kₒₙ.

B1: YW629.51 (antibody, human IgG1, V domains shown)
VH: EVQLVESGGGLVQPGGSLRLSCAASGFTFSSYAMHWVRQAPGKGLEWVSRISSNGGSTYYADSVKGRFTISRDNSKNTLYLQMNSLRAEDTAVYYCARWIPQSYPFASYKSGFDYWGQGTLVTVSS
VL: DIQMTQSPSSLSASVGDRVTITCRASQGISSYLAWYQQKPGKAPKLLIYDASSLESGVPSRFSGSGSGTDFTLTISSLQPEDFATYYCQQYYSYPFTFGQGTKVEIKR
notes: also called P6C.51; bivalent LRP5 antibody (P6C.51)
TOPFlash luciferase reporter, recombinant Norrin (cells transfected with LRP5 and FZD-4) [1]: > 2 fold
Kd [2]: 13 nM
koff [2]: 0.00309 s⁻¹
kon [2]: 237000 M⁻¹ s⁻¹

B2: YW629.42 (antibody, human IgG1, V domains shown)
VH: EVQLVESGGGLVQPGGSLRLSCAASGFTFSSYAMSWVRQAPGKGLEWVGAISSSGSSTYYADSVKGRFTISRDNSKNTLYLQMNSLRAEDTAVYYCARYYRYAPYRSLGMDVWGQGTLVTVSS
VL: B1 VL with D50A, E55Q
notes: also called P6C.42
Kd [2]: 51.6 nM
koff [2]: 0.00116 s⁻¹
kon [2]: 22600 M⁻¹ s⁻¹

B3: YW629.42.65 (antibody, human IgG1, V domains shown)
VH: B2 VH with A50G, S54P
VL: B1 VL with D50A, E55Q, S93L
notes: also called P6C.42.65
Kd [2]: 2.54 nM
koff [2]: 9.63e-05 s⁻¹
kon [2]: 37900 M⁻¹ s⁻¹

B4: YW629.42.58 (antibody, human IgG1, V domains shown)
VH: B2 VH with S54P, S56W
VL: B1 VL with D50A, E55Q
notes: also called P6C.42.58
Kd [2]: 2.78 nM
koff [2]: 8.69e-05 s⁻¹
kon [2]: 31300 M⁻¹ s⁻¹

B6: YW629.51.13 (antibody, human IgG1, V domains shown)
VH: B1 VH with A107R
VL: B1 VL
notes: also called P6C.51.13
Kd [2]: 1.13 nM
koff [2]: 0.000369 s⁻¹
kon [2]: 327000 M⁻¹ s⁻¹

B8: YW629.42.57 (antibody, human IgG1, V domains shown)
VH: B2 VH with S53A, S54P
VL: B1 VL with D50A, E55Q
notes: also called P6C.42.57
Kd [2]: 5.42 nM
koff [2]: 0.000163 s⁻¹
kon [2]: 30100 M⁻¹ s⁻¹

B9: YW629.51.63 (antibody, human IgG1, V domains shown)
VH: B1 VH
VL: B1 VL with G28S, S30Y, S31Y
notes: also called P6C.51.63
Kd [2]: 0.592 nM
koff [2]: 0.000199 s⁻¹
kon [2]: 337000 M⁻¹ s⁻¹

Now those with a lower Kd [2], led by results:

Kd [2]: 0.192 nM
koff [2]: 7.24e-05 s⁻¹
kon [2]: 378000 M⁻¹ s⁻¹
B5: YW629.51.78 (antibody, human IgG1, V domains shown)
VH: B1 VH
VL: B1 VL with S30F, S31Y, S53T
notes: also called P6C.51.78

TOPFlash luciferase reporter, Norrin as ligand (cells transfected with LRP5 and FZD-4) [1]: 3 fold
TOPFlash luciferase reporter, Wnt7b as ligand (cells transfected with LRP5 and FZD-4) [1]: 2 fold
Kd [2]: 0.47 nM
koff [2]: 0.000115 s⁻¹
kon [2]: 244000 M⁻¹ s⁻¹
B7: YW629.51.61 (antibody, human IgG1, V domains shown)
VH: B1 VH
VL: B1 VL with G28V, I29M, S30G, S31Y
notes: also called P6C.51.61; PC6.51.61

Kd [2]: 0.268 nM
koff [2]: 0.000104 s⁻¹
kon [2]: 387000 M⁻¹ s⁻¹
B10: YW629.51.80 (antibody, human IgG1, V domains shown)
VH: B1 VH
VL: B1 VL with G28A, S30Y
notes: also called P6C.51.80

Kd [2]: 0.438 nM
koff [2]: 0.000165 s⁻¹
kon [2]: 376000 M⁻¹ s⁻¹
B11: YW629.51.77 (antibody, human IgG1, V domains shown)
VH: B1 VH
VL: B1 VL with G28V, S30Y, S31G, S53T, L54R
notes: also called P6C.51.77
